Data from patent EP1758924B1 (Council of Scientific and Industrial Research, dated 2005).

Molecular target: T1, Hsp16.3 (16 kDa alpha-crystallin like heat-shock protein of Mycobacterium tuberculosis), recombinant, 6 X His … (Mycobacterium tuberculosis)
T1 construct: also called M. tuberculosis Acr (Hsp16.3) protein
Experiment: reverse phage ELISA on coated Hsp16.3, anti-M13-HRP, A405

B1: phage clone displaying peptide sequence Seq ID 21 (Tyr-Pro-His-His-Phe-Lys-His-Arg-His-Ile-Pro-Ile), from the Ph.D.-12 library on bacteriophage M13 (peptide)
peptide: YPHHFKHRHIPI
notes: Tested as whole phage in the reverse phage ELISA; not shown: fused to an M13 coat protein (spacer Gly-Gly-Gly-Ser is named)
- fold binding over BSA background: ~3 fold
